Assay results reported in patent US20110124556 (published 2011).
Non-standard residues stand in square brackets, D forms with d. No end group written: not given here. *: point of attachment. Biotin = O=C1N[C@H]2[C@H](CS[C@H]2CCCCC(=O)*)N1; Bpa = N[C@@H](Cc1ccc(C(=O)c2ccccc2)cc1)C(=O)O

The binders below were run against T1, human insulin receptor (HIR) (human, UniProt P06213) (assay: competition).

Kd [nM] | Binder
~100 | MADYKDDDDKWLDQEWAWVQCEVYGRGCPSAAAGAPVPYPDPLEPRPG [RB540 (D8)]
60 | RB517 (protein) DYKDDDDKHLCVLEELFWGASLFGYCSGGGSGGSHLCVLEELFWGASLFGYCSGAAAGAPVPYPDPLEPRAA
0.7 | 539 (D8-6aa-RP9) (protein) MADYKDDDDKWLDQEWAWVQCEVYGRGCPSGGSGGSGSLDESFYDWFERQLGKKAAAGAPVPYPDPLEPRPG

Target: T1, human insulin receptor (HIR)
Experiment: competition
Remark: another data set of the same source

Kd [nM] | Binder
830 | GSLDESFYDWFERQLGKK [S371 (RP9)]
180 | S374 (not fully specified; listing feature) chain 1: XGSLDESFYDWFERQLGKK chain 2: XGSLDESFYDWFERQLGKK

Target: T1, human insulin receptor (HIR)
Experiment: competition
Remark: another data set of the same source

Binder | Kd [nM]
TGHRLGLDEQFYWWFRDALSG [S265] | 110
SGSLDESFYDWFERQLGKK [S372] | 200
HETFYSMIRSLAK [S117] | 27
S440 (peptide) chain 1: ESFYDWFERQLGGGGK chain 2: EWAWVQCEVYGRGCPS | 99
FHENFYDWAVRQVSKK [S223] | > 2000
S233 (listing feature) chain 1: FHENFYDWFVRQVSKKX chain 2: SDGFYNAIELLSX | 260
IQGWEPFYGWFDDVVAQMFEE [S264] | 190
S252 (listing feature) chain 1: SDGFYNAIELLSX chain 2: SDGFYNAIELLSX | 440
QLEEEWAGVQCEVYGRECPS [S226] | 16000
PLRESRNFYDWFVQQLE [S366] | 370
S217 (peptide) chain 1: SDGFYNAIELLS chain 2: SDGFYNAIELLS | 3900
ANFYDWFVAELG [S242] | 20000
PLCFLQELFGGASLGGYCSG [S262] | 19000
S546 (not fully specified (bridges); cysteine pairing not given here; also: chains 1 and 2 form one continuous chain) chain 1: SLEEEWAQVECEV chain 2: [Bpa]GRGCPSGSLDESFYDWFERQ[Bpa]GK(Biotin) | 26

Now from value to binder:

Kd [nM] | Binder
0.037 | SLEEEWAWVECEVYGRGCPSGSLDESFYDWFERQL [S532]
0.018 | SLEEEWAQIECEVWGRGCSGSLDESFYDWFERQL [S561]
0.006 | SIEEEWAQIKCDVWGRGCPSESFYDWFERQL [S517]
1.3 | HHHHHHKLDQEWAWVQCEVYGRGCPSESFYDWFERQLG [S481]
20 | HDPFYSMMKSLLK [S120]
2.6 | LAQEWAWVQCEVYGRGCPSESFYDWFERQL [S495]
5.7 | LDQEWAWVQSEVYGRGSPSESFYDWFERQL [S509]
16 | S255 (listing feature) chain 1: SDGFYNAIELLSGGGX chain 2: SDGFYNAIELLSGGGX
0.014 | S563 (cysteine pairing not given here) chain 1: SLEEEWAQIQCEVWG chain 2: R[dN][dC]SESFYDWFERQL

What follows are binders tested against sIR (human, UniProt P06213) (assay: FP).

IC50 [nM] | Binder
0.2 | S414 (not fully specified; listing feature) chain 1: ESFYDWFERQLGKX chain 2: ESFYDWFERQLGKX

The binders below were run against sIR-Fc (human, UniProt P06213) (assay: competition, TR-FRET vs b-RP9).

IC50 [nM] | Binder
184 | S414 (not fully specified; listing feature) chain 1: ESFYDWFERQLGKX chain 2: ESFYDWFERQLGKX

Target: T1, human insulin receptor (HIR)
Experiment: competition
Remark: another data set of the same source

Kd [nM] | Binder
100 | S415 (listing feature) chain 1: ESFYDWFERQLGKX chain 2: ESFYDWFERQLGKX

Target: T1, human insulin receptor (HIR)
Experiment: competition
Remark: another data set of the same source

IC50 [nM] | Binder
700 | FHENFYDWFVQRVSKK [H2C (D117)]
